The values that follow come from publication PMC2141715.

The target in this experiment is calreticulin (canine pancreas microsomes) (dog (endogenous in canine pancreas microsomes)) (UniProt P28490). Description: co-IP.

Turning to “HA glycosylation mutant Δ483 (natural protein)”, the reduction in binding against wild-type HA stood at 40%.
